2 molecules from US20110045003A1 (SYNOVEX, published 2011) can be followed below.

The target of experiment [1] is T1, recombinant Cad-11 EC1 human IgG1 fusion protein (R&D Systems Cat. No. 1790-CA-050) (human, UniProt P55287 54-617, limits assumed).
T1 construct: Bought protein; the catalogue product may hold more of the extracellular region; also called recombinant human Cad-11 EC1; recombinant human Cad-11 fusion protein; not shown: human IgG1 part of the bought fusion protein
T1 sequence: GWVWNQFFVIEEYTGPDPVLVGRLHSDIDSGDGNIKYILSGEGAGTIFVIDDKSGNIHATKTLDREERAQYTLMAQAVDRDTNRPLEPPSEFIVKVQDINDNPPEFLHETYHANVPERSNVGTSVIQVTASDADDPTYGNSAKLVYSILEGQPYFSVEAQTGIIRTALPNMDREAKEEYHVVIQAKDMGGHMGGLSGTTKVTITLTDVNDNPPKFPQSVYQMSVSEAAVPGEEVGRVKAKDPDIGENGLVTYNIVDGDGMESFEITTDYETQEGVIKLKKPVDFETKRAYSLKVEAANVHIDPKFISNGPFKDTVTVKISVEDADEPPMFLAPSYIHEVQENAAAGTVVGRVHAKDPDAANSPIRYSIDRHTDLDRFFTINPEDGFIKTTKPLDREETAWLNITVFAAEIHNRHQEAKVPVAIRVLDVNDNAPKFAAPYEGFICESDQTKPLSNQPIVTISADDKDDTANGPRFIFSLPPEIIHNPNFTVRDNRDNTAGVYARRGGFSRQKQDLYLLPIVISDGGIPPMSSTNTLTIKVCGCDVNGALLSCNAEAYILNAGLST
Kind of experiment: competition ELISA on coated recombinant human Cad-11 EC1 fusion protein; competitor biotinylated SYN0012 at 0.1 µg/ml, streptavidin-HRP, OD450. Here is the method:
The binding of the purified humanized composite variant antibodies (SDP011 to SDP151) to a recombinant Cad-11 EC1 human IgG1 fusion protein was assessed in a competition binding ELISA. A dilution series from 5 μg/ml to 0.0022 μg/ml of the humanized or control (SYN0012/H1M1) antibodies was premixed with a constant concentration of biotinylated murine anti-Cad-11 antibody, SYN0012/H1M1 (0.1 μg/ml, final concentration), before incubating for 1 hour at room temperature on a Nunc Immuno MaxiSorp 96 well flat bottom microtitre plate (Fisher Cat. No. DIS-971-030J) pre-coated with 0.25 μg/ml recombinant human Cad-11 EC1 (R&D Systems Cat. No. 1790-CA-050) diluted in PBS. The binding of the biotinylated mAb was detected with streptavidin-HRP (Sigma Cat. No. 55512) and tetramethylbenzidine (TMB) substrate (Invitrogen Cat. No. 00-2023).

Experiment [2] has as its target T2, recombinant his-tagged human Cad-11 (R&D Systems) (human, UniProt P55287 54-617).
T2 construct: also called rhCad-11; recombinant human Cad-11; not shown: his tag
T2 sequence: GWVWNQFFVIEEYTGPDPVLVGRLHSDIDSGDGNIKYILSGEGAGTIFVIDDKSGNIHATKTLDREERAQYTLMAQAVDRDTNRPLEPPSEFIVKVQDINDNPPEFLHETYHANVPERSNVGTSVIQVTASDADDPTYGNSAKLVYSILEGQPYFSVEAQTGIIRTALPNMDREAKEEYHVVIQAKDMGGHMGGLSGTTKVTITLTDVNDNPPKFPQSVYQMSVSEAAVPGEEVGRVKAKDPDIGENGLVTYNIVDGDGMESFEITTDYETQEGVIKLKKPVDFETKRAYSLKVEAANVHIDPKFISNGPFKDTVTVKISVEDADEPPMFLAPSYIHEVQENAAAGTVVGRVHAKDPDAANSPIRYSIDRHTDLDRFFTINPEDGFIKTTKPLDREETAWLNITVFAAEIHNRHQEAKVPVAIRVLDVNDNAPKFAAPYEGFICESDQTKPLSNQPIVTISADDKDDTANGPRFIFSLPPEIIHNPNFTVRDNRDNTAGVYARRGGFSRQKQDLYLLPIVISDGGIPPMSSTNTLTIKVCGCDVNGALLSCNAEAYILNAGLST
The experiment in a line: SPR, rhCad-11 immobilized, SDP051 as analyte, 2 state reaction model (ka1). Here is the method:
To determine the affinity of SDP051 for recombinant his-tagged human Cad-11, rhCad-11 (R&D Systems) was immobilized to the chip at a single concentration, high resolution kinetics were determined for SDP051, and a 2-state reaction binding model was successfully fitted to the kinetic data.
Kinetic data were obtained at a flow rate of 40 μL/min to minimize any potential mass transfer effects. An analyte concentration series ranging from 12.5 nM to 0.195 nM was prepared by serial dilution. Two repeats of the blank (no mAb) and the 3.125 nM (first and last cycle) concentration of the analyte were programmed into the kinetic runs in order to check the stability of both the surface and analyte over the kinetic cycles. The SDP051 was injected over the Fcs for 360 seconds, long enough to observe the curvature in association phase.
As rhCad-11 is homodimeric and therefore contained two identical binding epitopes, it is likely that individual mAb molecules become bound sequentially through a first binding site and then both binding sites.

Experiment [3] deals with T3, BSA coupled 37-mer Cad-11 peptide encompassing the Cad-11 immunogen (UniProt P55287 54-90, limits assumed, linked to BSA).
T3 construct: domain: 37-mer peptide encompassing the Cad-11 immunogen; also called Cad-11 antigen; Cad-11 peptide immunogen
T3 peptide (looked up): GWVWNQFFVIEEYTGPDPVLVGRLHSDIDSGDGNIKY
Kind of experiment: ELISA on BSA coupled 37-mer peptides, coat 50 ng/ml.

Experiment [4] has as its target T4, Peptide 2 (amino acids G15-N34 of the Cad-11 EC1 domain) (human).
T4 construct: Range counted on the EC1 domain; also called PEP2
T4 peptide: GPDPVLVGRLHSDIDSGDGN
The experiment in a line: ELISA on coated peptide or protein, antibody at one dilution, goat anti-mouse IgG, TMB, OD450. The protocol: (§1) To determine the epitope within the Cad-11 EC1 domain that the Peptide 4 Cad-11 EC1 antibodies H1M1 and H14 bind, four different peptides spanning the first 37 amino acids of the EC1 region (see FIG. 22) were immobilized in an ELISA format and the ability of the H1M1 and H14 antibodies to bind each of the four peptides was determined. 96-well Reactibind plates were coated overnight at 4° C. with 0.3 ng/well of Peptide 1 (amino acids G1-P18 of the Cad-11 EC1 domain), 0.3 ng/well of Peptide 2 (amino acids G15-N34 of the Cad-11 EC1 domain), 0.3 ng/well of Peptide 3 (amino acids V19-Y37 of the Cad-11 EC1 domain), 0.3 ng/well of the immunogen Peptide 4 (amino acids G1-G33 of the Cad-11 EC1 domain), 20 ng of a fusion protein including the entire EC1 domain (EFL), or 20 ng of control human Ig (Fc-block). The wells were washed twice with PBS-Tween (0.05%), blocked with casein in dH₂0 for 3 hrs at 22° C. and then washed again twice with PBS-Tween (0.05%). Various dilutions of the different Peptide 4 Cad-11 EC1 domain antibodies were transferred to the peptide- or protein-coated wells, incubated for 45 min at 22° C. and then washed twice with PBS-Tween (0.05%). 100 μl of a 1/1000 dilution of goat anti-mouse IgG secondary antibody (Jackson ImmunoResearch, West Grove, Pa.) were added to each well, incubated for 30 min at 22° C. and then washed twice with PBS-Tween (0.05%). 100 μl/well of room temperature TMB reagent was added to each well and color was allowed to develop for 5 min at 22° C.

The target of experiment [5] is T5, Peptide 3 (amino acids V19-Y37 of the human Cad-11 EC1 domain) (human).
T5 construct: also called PEP3; peptide V19-Y37
T5 peptide: VLVGRLHSDIDSGDGNIKY
Described as above. Here is the method: as §1

In experiment [6] the target is T6, Peptide 1 (amino acids G1-P18 of the Cad-11 EC1 domain) (human).
T6 construct: Range counted on the EC1 domain; also called PEP1
T6 peptide: GWVWNQFFVIEEYTGPDP
The description is as above. The protocol: as §1

B1: humanized anti-Cad-11 EC1 antibody SDP051 (Vκ1/VH5) (antibody, IgG4, V domains shown)
VH: EVQLVQSGAEVKKPGASVKVSCKASGYSFTGYFMNWVRQAPGQGLEWIGRINPYTGDTFYNQKFKGRVTITVDKSTSTAYMELSSLRSEDTAVYYCGRLGSRYWYFDVWGQGTTVTVSS
VL: DVLMTQTPLSSPVTLGQPASISCRSSQSIIHSNGNTYLEWYLQKPGQSPQLLIYKVSNRFSGVPDRFTGSGSGTDFTLKISRVEAEDVGVYYCFQGSHVPWTFGQGTKLEIK
notes: humanized IgG4 (S241P), kappa
On to B1, for which the “IC50 (read off the curve)” value in experiment [1] was about 0.2 µg/mL. Besides, in experiment [2], the kon was 613000 M⁻¹ s⁻¹. Besides, the “binding differential (Cad-11 against Cad-8)” value in experiment [3] was over 200 fold.

B2: murine H1M1 monoclonal anti-Cad-11 EC1 antibody (hybridoma H1M1, ATCC PTA-9699) (antibody, V domains shown)
VH: EVQLQQSGPELVKPGASVKISCKASGYSFTGYFMNWVKQSHGKSLEWIGRINPYTGDTFYNQKFKGKATLTVDKSSSTAHMELLSLSSEDSAVYYCGRLGSRYWYFDVWGAGTTVTVSS
VL: DVLMTQTPLSLPVSLGDQASISCRSSQSIIHSNGNTYLEWYLQKPGQSPKLLIYKVSNRFSGVPDRFTGSGSGTDFTLKISRVEAEDLGVYYCFQGSHVPWTFGGGTKLEIK
modifications: Biotinylated when used as the labelled competitor in Example 14; the letters are unchanged.
notes: murine antibody raised against Peptide 4; also called SYN0012; SYN0012/H1M1
As for B2, in experiment [1], the “IC50 (read off the curve)” value was about 0.2 µg/mL. Besides, the binding result in experiment [4] is given as “binds”; in experiment [5], “no binding”; in experiment [6] it was “no binding”.
